US8889419 (INDIANA UNIVERSITY RESEARCH AND TECHNOLOGY, dated 2014)

Key:
[1] = target: T1, integrin VLA-4 on HL60 cells (UniProt P13612 34-1032; P05556 21-798); experiment: adhesion of HL60 cells (VLA-4 positive) to fragment-coated plates
T1 construct: whole, on cells; HL60 cells express VLA-4 but not VLA-5 by flow cytometry; also called CD49d

[2] = target: T1, integrin VLA-4 on HL60 cells; experiment: adhesion of HL60 cells to fragment-coated plates

T1 sequence (P13612 34-1032, chain 1 of 2): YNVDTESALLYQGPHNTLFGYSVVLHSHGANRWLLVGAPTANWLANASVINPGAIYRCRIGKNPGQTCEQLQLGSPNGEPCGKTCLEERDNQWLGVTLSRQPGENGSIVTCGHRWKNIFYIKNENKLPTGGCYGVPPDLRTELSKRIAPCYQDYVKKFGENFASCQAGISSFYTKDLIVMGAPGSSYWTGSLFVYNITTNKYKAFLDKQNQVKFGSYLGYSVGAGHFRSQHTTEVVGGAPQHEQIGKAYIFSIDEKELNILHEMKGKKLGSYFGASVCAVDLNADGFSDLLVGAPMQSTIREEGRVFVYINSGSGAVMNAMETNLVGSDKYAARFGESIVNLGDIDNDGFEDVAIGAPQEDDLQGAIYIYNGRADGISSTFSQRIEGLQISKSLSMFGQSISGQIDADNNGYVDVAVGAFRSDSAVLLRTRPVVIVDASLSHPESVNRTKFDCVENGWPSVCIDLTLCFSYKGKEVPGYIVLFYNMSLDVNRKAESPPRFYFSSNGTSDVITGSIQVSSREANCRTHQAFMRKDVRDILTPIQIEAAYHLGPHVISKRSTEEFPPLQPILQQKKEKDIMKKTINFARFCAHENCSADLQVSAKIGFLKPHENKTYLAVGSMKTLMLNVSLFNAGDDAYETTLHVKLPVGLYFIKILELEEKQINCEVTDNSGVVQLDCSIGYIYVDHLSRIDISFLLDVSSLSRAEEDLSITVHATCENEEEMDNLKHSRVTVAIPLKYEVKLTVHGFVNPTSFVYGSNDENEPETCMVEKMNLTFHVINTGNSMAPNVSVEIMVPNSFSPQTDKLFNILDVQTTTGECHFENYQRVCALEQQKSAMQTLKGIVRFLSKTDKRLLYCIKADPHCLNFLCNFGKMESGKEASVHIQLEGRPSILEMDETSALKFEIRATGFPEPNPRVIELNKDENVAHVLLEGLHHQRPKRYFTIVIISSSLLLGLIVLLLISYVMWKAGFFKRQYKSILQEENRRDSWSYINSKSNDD
T1 sequence (P05556 21-798, chain 2 of 2): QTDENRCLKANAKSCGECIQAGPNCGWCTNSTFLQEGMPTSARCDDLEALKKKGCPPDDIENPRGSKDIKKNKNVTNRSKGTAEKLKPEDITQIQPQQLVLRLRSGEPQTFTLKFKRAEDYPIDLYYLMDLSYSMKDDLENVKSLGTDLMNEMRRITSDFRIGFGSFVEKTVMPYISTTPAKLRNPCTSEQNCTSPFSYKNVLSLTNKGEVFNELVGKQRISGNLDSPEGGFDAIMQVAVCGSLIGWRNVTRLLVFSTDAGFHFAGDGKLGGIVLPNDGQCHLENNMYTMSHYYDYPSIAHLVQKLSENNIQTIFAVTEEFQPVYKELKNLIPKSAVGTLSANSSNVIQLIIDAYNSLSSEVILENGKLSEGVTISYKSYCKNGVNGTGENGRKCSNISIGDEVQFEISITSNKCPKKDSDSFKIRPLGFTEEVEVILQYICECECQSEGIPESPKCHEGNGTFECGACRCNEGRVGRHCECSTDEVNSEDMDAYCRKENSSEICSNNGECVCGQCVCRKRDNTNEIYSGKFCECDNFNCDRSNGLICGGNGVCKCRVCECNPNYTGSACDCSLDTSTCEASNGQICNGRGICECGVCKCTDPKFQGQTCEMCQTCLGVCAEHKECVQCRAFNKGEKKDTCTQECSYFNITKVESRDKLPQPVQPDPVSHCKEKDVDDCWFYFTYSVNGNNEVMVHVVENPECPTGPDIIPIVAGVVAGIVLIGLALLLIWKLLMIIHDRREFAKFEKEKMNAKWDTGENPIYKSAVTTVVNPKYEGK

B1: recombinant fibronectin fragment H-296 (other, human, UniProt P02751 1812-2082, looked up)
chain: AIPAPTDLKFTQVTPTSLSAQWTPPNVQLTGYRVRVTPKEKTGPMKEINLAPDSSSVVVSGLMVATKYEVSVYALKDTLTSRPAQGVVTTLENVSPPRRARVTDATETTITISWRTKTETITGFQVDAVPANGQTPIQRTIKPDVRSYTITGLQPGTDYKIYLYTLNDNARSSPVVIDASTAIDAPSNLRFLATTPNSLLVSWQPPRARITGYIIKYEKPGSPPREVVPRPRPGVTEATITGLEPGTEYTIYVIALKNNQKSEPLIGRKKTDELPQLVTLPHPNLHGPEILDVPST
notes: Expressed in E. coli
[1]
  binding result: binds

B2: recombinant fibronectin fragment H-271 (other, human, UniProt P02751 1812-2082, looked up)
chain: AIPAPTDLKFTQVTPTSLSAQWTPPNVQLTGYRVRVTPKEKTGPMKEINLAPDSSSVVVSGLMVATKYEVSVYALKDTLTSRPAQGVVTTLENVSPPRRARVTDATETTITISWRTKTETITGFQVDAVPANGQTPIQRTIKPDVRSYTITGLQPGTDYKIYLYTLNDNARSSPVVIDASTAIDAPSNLRFLATTPNSLLVSWQPPRARITGYIIKYEKPGSPPREVVPRPRPGVTEATITGLEPGTEYTIYVIALKNNQKSEPLIGRKKT
[2]
  binding result: no binding (tested: 2 µg/cm^2 coating)
